Assay results published in US8688427B2, “Enzyme catalysts for diels-alder reactions” (University of Washington, priority 2008, dated 2014).

Experiments:
Type in all cases: biochemical
[1] = Diels-Alder activity assay with purified protein, LC-MSMS product detection; conditions: 0.1 mM diene, 3 mM dienophile, PBS, 298K, 20 μM protein
Method: The observed velocity for each mutant was normalized by the velocity of DA—20—00 in order to determine the effective rate enhancement conferred by each mutation. The reactions were done at 1 mM diene, and 10 mM dienophile, PBS, 298K, and 100 μM protein.
Mutations showing enhanced activity on DA—20—04 were sequenced, grown large scale, and assayed. The assay was done at 0.1 mM dieine, 3 mM dienophile, PBS, 298K, and 20 μM protein.
The Diels-Alder reactions were performed in PBS, at 25° C., with 4% DMSO. The DMSO came from the diene, for which the stock solution (100 mM) was made in DMSO and always diluted such that the final reaction would contain 4% DMSO. After incubation of the desired amount of diene and dienophile in the presence or absence of the protein, time points were taken of the reaction (5 μL) and quenched in a solution of 80:20 acetonitrile:water with 0.1% formic acid and 1 mM Benzoic Acid (95 μL). This reaction was incubated for 5 minutes and then the precipitated protein filtered using a Millipore multiscreen solvinert filter plate (Product Number: MSRLN0450). 20 μL of the filtered quench solution was then injected and analyzed using a liquid chromatography-tandem mass spectroscopy (LC-MSMS) assay.
A total of 43 variants were assayed using the standard activity assay. The observed activities are described in Table 2. In Table 2, the Expression column provides the number of times the mutant was expressed; the Observed column reports the raw signal level out of the mass-spec for the product (the Observed column is not normalized nor background corrected); the Concentration column provides the concentration of the protein after large-scale expression. […]

[2] = Kinetic characterization: reaction velocity versus diene and dienophile concentration
Method: (A) Dependence of reaction velocity on diene concentration for different fixed dienophile concentrations. The diene concentration was varied from 3.0 to 0.18 mM with a fixed concentration of 100 mM (⋄), 66 mM (Δ), 44 mM (⋄), 30 mM (◯), 20 mM (◯), or 13 mM (●) dienophile (B) Dependence of reaction velocity on dienophile concentration for different fixed diene concentrations. The dienophile was varied from 100 to 13.0 mM with a fixed concentration of 3 mM (♦), 2 mM (▴), 1.3 mM (∇), 0.9 mM (Δ), 0.6 mM (⋄), 0.4 mM (□), 0.26 mM (◯), or 0.18 mM (●) […]. Reactions were carried out with 20 μM protein in PBS at 298 K.
The kinetics of the DA—20—10 catalyzed reaction was characterized by measuring the dependence of the reaction velocity on the concentration of both diene and dienophile. The effective molarity (kcat/kuncat) of DA—20—10 is 100 M, and the rate enhancement (kcat/(kuncat*KM_diene)) in the presence of saturating dienophile and limiting diene is 1.0×10^5. At high substrate concentrations DA—20—10 proceeds for more than 30 turnovers before the enzyme loses activity. At higher enzyme concentrations more than 80% of the diene substrate is converted to product.
The errors represent the calculated 95% confidence interval. The parameter a describes the cooperativity of binding between the two substrates: a value greater than one indicates negative cooperativity, whereas a value lower then one indicates positive cooperativity. α could not be determined for DA—20—00. Kinetic parameters for catalytic antibodies 7D4 and 4D5 were taken from (10, 17).

[3] = Production run and effects of knocking out the catalytic residues; conditions: higher enzyme concentrations: 1 mM diene, 50 mM dienophile, 200 μM protein, PBS, 298K
Method: The reaction was carried out in 1 mM diene, 50 mM dienophile, 200 μM enzyme, in PBS at 298K. The proteins assayed are DA—20—10 (υ), Y121F (▴), Q195E (x), and tela scaffold (*), uncatalyzed (λ).
To determine whether the observed activity depends on the designed active site, we investigated the contributions of the designed catalytic residues in DA—20—10 to catalysis. Glutamine 195 was mutated into a glutamate (Q195E) and tyrosine 121 was mutated into a phenylalanine (Y121F). We had originally incorporated a glutamine rather than a glutamate at this position, despite the fact that the carboxylate should make a stronger hydrogen bond with the diene carbamate. This hydrogen bond should increase the energy of the diene HOMO (and thus decrease the energy gap with the dienophile LUMO), and more greatly stabilize the transition state. However, we were concerned that the substantial free energy cost of desolvating the carboxylate would considerably reduce binding affinity for the diene. […] The Y121F mutation decreases catalytic activity by 27-fold, consistent with the removal of a hydrogen bond that contributes to dienophile binding, stabilizes the dienophile LUMO, and is enhanced in the transition state.
Timepoints were taken and measured as previously described over a period of 60 hours.

[4] = Substrate specificity, LC-MS of product peak area formed per hour; conditions: 0.2 mM diene, 10 mM dienophile, 60 μM protein, PBS, 298K
Method: FIG. 19 illustrates the substrate specificity of DA—20—10 and a single mutant of DA—20—10, H287N. Reactions were carried out with 0.2 mM diene 1 (FIG. 1), and 10 mM of one of the six dienophiles depicted in PBS at 298K in the absence or presence of 60 μM DA—20—10 or DA—20—10_H287N. The depicted values in the figure are the mean (bars) and standard deviation (error bars) of four independent measurements of the product peak area (arbitrary units) formed per hour, determined using a liquid chromatography-mass spectroscopy assay.
To experimentally determine substrate specificities each dienophile from FIG. 19 was either purchased or synthesized. The dienophiles were assayed in the presence or absence of 60 μM DA—20—10 or the H287N mutant over 30 hours with 10 mM dienophile and 0.2 mM diene at 298K in a PBS solution. A sample of the reaction was taken at four different time points, quenched, and filtered as previously described. To detect product a liquid chromatography-mass spectroscopy assay was used. […] The average area of each detected peak formed per hour was used to determine the relative amount of product formed with and without enzyme.
Besides stereoselectivity, the level of control over a chemical reaction by a designed enzyme is reflected by its substrate specificity. […] The activity against each of the substrates was measured using a liquid-chromatography mass spectroscopy assay.

B1: DA_20_10: DA_20_04 with A272N, Q149R, A173C (protein)
chain: MEIPVIEPLFTKVTEDIPGATGPVFDKNGDFYIVAPYVEVNGKPAGEILRIDLKTGKKTVICKPEVNGYGGIPIGCQCDRDANQLFVADMRLGLLVVQTDGTFEEIAKKDSEGRRMQGCAYCAFDYEGNLWITAPAGEVAPADFTISLREKFGSIYCFTTDGQMIQVDTAFQCPAGIAVRHMNDGRPYQLIVAEQPTKKLWSYDIKGPAKIENKKVWGHIPGTHKGGAAGMDFDEDNNLLVANWGSSHIEVFGPDGGQPKMRIRCPFEKPANLHFKPQTKTIFVTEHENNAVWKFEWQRNGKKQYCETLKFGIFGSLEHHHHHH
modifications: Enzyme catalyst for Diels-Alder reaction
notes: DA_20_04 with A272N, Q149R, A173C
- product formed per hour [1]: 154.9 nM of product/hour
- increase in overall catalytic efficiency over the original design model DA_20_00 [2]: roughly 2200 fold
- kcat relative to those of 7D4 and 4D5 ([2]; DA_20_10 at 298K, antibodies at 310K): 10 fold
- rate enhancement (kcat/(kuncat*KM_diene)) relative to either antibody ([2]; saturating dienophile and limiting diene, versus 7D4 and 4D5): 20 fold
- effective molarity (kcat/kuncat) relative to either antibody ([2]; versus 7D4 and 4D5): 20 fold
- diene substrate converted to product [3]: more than 80%
- substrate specificity (in words) [4]: highly favor the substrate for which it was designed
